Consider two variants from IntAct's records for PubMed 22665060.

B1: Tight junction protein 2 (Homo sapiens), Q9UDY2-3 (parent)
chain: MEELIWEQYTVTLQKDSKRGFGIAVSGGRDNPHFENGETSIVISDVLPGGPADGLLQENDRVVMVNGTPMEDVLHSFAVQQLRKSGKVAAIVVKRPRKVQVAALQASPPLDQDDRAFEVMDEFDGRSFRSGYSERSRLNSHGGRSRSWEDSPERGRPHERARSRERDLSRDRSRGRSLERGLDQDHARTRDRSRGRSLERGLDHDFGPSRDRDRDRSRGRSIDQDYERAYHRAYDPDYERAYSPEYRRGARHDARSRGPRSRSREHPHSRSPSPEPRGRPGPIGVLLMKSRANEEYGLRLGSQIFVKEMTRTGLATKDGNLHEGDIILKINGTVTENMSLTDARKLIEKSRGKLQLVVLRDSQQTLINIPSLNDSDSEIEDISEIESNRSFSPEERRHQYSDYDYHSSSEKLKERPSSREDTPSRLSRMGATPTPFKSTGDIAGTVVPETNKEPRYQEDPPAPQPKAAPRTFLRPSPEDEAIYGPNTKMVRFKKGDSVGLRLAGGNDVGIFVAGIQEGTSAEQEGLQEGDQILKVNTQDFRGLVREDAVLYLLEIPKGEMVTILAQSRADVYRDILACGRGDSFFIRSHFECEKETPQSLAFTRGEVFRVVDTLYDGKLGNWLAVRIGNELEKGLIPNKSRAEQMASVQNAQRDNAGDRADFWRMRGQRSGVKKNLRKSREDLTAVVSVSTKFPAYERVLLREAGFKRPVVLFGPIADIAMEKLANELPDWFQTAKTEPKDAGSEKSTGVVRLNTVRQIIEQDKHALLDVTPKAVDLLNYTQWFPIVIFFNPDSRQGVKTMRQRLNPTSNKSSRKLFDQANKLKKTCAHLFTATINLNSANDSWFGSLKDTIQHQQGEAVWVSEGKMEGMDDDPEDRMSYLTAMGADYLSCDSRLISDFEDTDGEGGAYTDNELDEPAEEPLVSSITRSSEPVQHEESIRKPSPEPRAQMRRAASSDQLRDNSPPPAFKPEPPKAKTQNKEESYDFSKSYEYKSNPSAVAGNETPGASTKGYPPPVAAKPTFGRSILKPSTPIPPQEGEEVGESSEEQDNAPKSVLGKVKIFEKMDHKARLQRMQELQEAQNARIEIAQKHPDIYAVPIKTHKPDPGTPQHTSSRPPEPQKAPSRPYQDTRGSYGSDAEEEEYRQQLSEHSKRGYYGQSARYRDTEL
partner: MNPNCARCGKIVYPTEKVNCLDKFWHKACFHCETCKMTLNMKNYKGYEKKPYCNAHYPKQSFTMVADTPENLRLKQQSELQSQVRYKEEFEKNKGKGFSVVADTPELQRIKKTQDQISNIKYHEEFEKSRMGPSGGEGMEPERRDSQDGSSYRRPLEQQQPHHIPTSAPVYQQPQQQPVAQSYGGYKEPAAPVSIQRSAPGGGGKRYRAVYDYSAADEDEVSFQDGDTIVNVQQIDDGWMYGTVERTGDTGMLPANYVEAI

The experiment covers variants of B1. Particulars: with lasp1_human LASP1, Q14847.
On to P1106A, for which the “effect of a mutation on the interaction” value is listed as “decreasing interaction”.

For the variant P1106A;P1116A, the “effect of a mutation on the interaction” value is “disrupting interaction strength”.
